This is an account of results in patent US20040039173A1 (SALK INSTITUTE FOR BIOLOGICAL STUDIES, published 2004).

No end group written: not given here.

For assay [1], the target named is human CRF receptor, subtype A, variant 1 (hCRF-RA1), encoded by clone hctCRFR (human) (UniProt P34998). The assay is described as follows: binding to the receptor encoded by hctCRFR in COSM6 cell membranes (competitive radioreceptor assay of Example 3).
Assay [2] addresses T1, mouse CRF receptor, subtype B, variant 1 (mCRF-RB1) (mouse, UniProt Q60748 35-411).
T1 construct: Full-length cDNA (431 amino acids) in pcDNA1, transiently expressed in COSM6 cells; also called pCRF-RB1
The assay can be described thus: competitive displacement of 125I-(Nle21,Tyr32)-ovine CRF, membranes of COSM6 cells transfected with pCRF-RB1. How it is done:
(§1) The reaction was terminated by filtration through GF/C (Whatman) filters, prewetted with 1% BSA, 10 mM HEPES, pH 7.5. The filters were washed 4 times with 1 ml 0.1% BSA, 50 mM Tris, pH 7.5.
(§2) Using the methods described in Example 3, a radioreceptor assay was conducted. Approximately […] of pCRF-RB₁ plasmid DNA was transfected into COSM6 cells using the DEAE dextran method. […] In order to calculate a Kd, the displacement data were analyzed using the Ligand program of Munson and Rodbard (1980), Anal. Biochem., 107:220-239.
In general terms: In a radioligand displacement assay an active substance lowers the binding of a labelled ligand.

The target in assay [3] is T1, mouse CRF receptor, subtype B, variant …. The assay is described as follows: competitive displacement of 125I-(Nle21,Tyr32)-ovine CRF, membranes of COSM6 cells transfected with pCRF-RB1, Ligand program, six experiments. How it is done:
as §1, §2

Assay [4] concerns the target T2, human CRF receptor, subtype A, variant 1 (hCRF-RA1), encoded by clone hctCRFR (human, UniProt P34998 24-415).
T2 construct: Transiently expressed in COSM6 cells; Clone hctCRFR (ATCC 75474) and clone CRF-R1 are both said to encode hCRF-RA1; also called CRF-R1; hctCRF receptor
T2 sequence: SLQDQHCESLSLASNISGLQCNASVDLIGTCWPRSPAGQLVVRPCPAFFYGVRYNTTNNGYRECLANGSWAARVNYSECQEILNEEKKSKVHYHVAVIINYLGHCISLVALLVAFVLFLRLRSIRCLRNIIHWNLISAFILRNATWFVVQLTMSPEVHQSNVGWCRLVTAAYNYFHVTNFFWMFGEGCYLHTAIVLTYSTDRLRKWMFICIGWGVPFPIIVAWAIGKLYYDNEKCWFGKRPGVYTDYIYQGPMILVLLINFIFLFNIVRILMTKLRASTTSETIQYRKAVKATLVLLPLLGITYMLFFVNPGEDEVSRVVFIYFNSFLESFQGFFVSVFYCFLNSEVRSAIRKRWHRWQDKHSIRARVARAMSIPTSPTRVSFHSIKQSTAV
The assay can be described thus: pharmacologic specificity of the receptor of SEQ ID NO:2.

T1 sequence (Q60748 other isoform, or with tags, fused parts or gaps mutant limits assumed): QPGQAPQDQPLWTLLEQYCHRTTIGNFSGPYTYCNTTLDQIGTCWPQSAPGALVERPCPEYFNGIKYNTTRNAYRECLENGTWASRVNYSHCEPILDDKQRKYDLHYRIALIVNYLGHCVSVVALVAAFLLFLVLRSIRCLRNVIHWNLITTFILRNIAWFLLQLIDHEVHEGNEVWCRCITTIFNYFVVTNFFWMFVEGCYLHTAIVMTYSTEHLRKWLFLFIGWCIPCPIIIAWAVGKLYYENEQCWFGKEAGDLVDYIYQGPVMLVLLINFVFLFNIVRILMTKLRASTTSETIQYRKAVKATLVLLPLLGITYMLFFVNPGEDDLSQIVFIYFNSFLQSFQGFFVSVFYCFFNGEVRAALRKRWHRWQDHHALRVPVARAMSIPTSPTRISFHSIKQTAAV

For “CRF antagonist a-helical (9-41) CRF (peptide)”, in assay [1], the Kd (usually the concentration at which binding is half-saturated) came out at 13 nM.

B1: hGRF(1-40)OH (peptide, UniProt P01286 32-71, looked up)
peptide: YADAIFTNSYRKVLGQLSARKLLQDIMSRQQGESNQERGA-OH
notes: range 1-40; also called growth hormone releasing factor
In the case of B1, the binding result in assay [2] is “no binding”.

B2: vasoactive intestinal peptide (VIP) (peptide, UniProt P01282 125-152, looked up)
peptide: HSDAVFTDNYTRLRKQMAVKKYLNSILN
notes: also called vasoactive intestinal polypeptide
For the molecule B2, the binding result in assay [2] is recorded as “no binding”.

B3: rat/human corticotropin-releasing factor (r/h CRF) (ligand, UniProt P06850 154-194, looked up)
peptide: SEEPPISLDLTFHLLREVLEMARAEQLAQQAHSNRKLMEII
notes: mature; The peptide in the assay is the mature 41-residue CRF; also called human/rat CRF; native r/h CRF
In assay [3], B3 showed a Kd of about 1.3 nM.

For QGPPISIDLSLELLRKMIEIEKQEKEKQQAANNRLLLDTI (ligand, UniProt P01144 1-40, looked up) [sauvagine], the binding result in assay [4] is recorded as “binds”.
